Numbering of substitutions follows the chain as printed. Each block holds one binder with its values, some of them ahead of it.
Molecular target: Cyno HARS (cynomolgus monkey (Macaca fascicularis))
Test: SPR (ProteOn); HRS protein immobilized, antibody as analyte

B1: AB04-439 (antibody, V domains shown)
VH: QVQLVESGGGLVKPGGSLRLSCAASGFTFSDYYMTWIRQAPGKGLEWVSYISGSFRYTNYADSVKGRFTISRDNAKNSLYLQMNSLRDEDTAVYFCARYVYQVVAIGDLWGQGTLVTVSS
VL: DIQMTQSPSSVSASVGDRVTITCRASQGISSWLAWYQQKPGRAPKLLIFAASSLQSGVPSRFSGSGSGTHFTLTISSLQPEDFATYYCQQAESFPYTFGQGTKLEIK
Kd: 75 pM

B2: AB13-433 (antibody, V domains shown)
VH: QVQLVESGGGLVKPGGSLRLSCAASGFTFSDYYMSWIRQAPGKGLEWVSYISDSSTYTNYTDSVRGRFTISRDNAKNSLYLQMNSLRAEDTAVYYCARYLYQVIAVADSWGQGTLVTVSS
VL: B1 VL with Y36F, R42K, F49Y, A50V, S53N, Q55E, H70D, E92N
Kd: 240 pM

B7: KL31-241 (antibody, V domains shown)
VH: QVQLVQSGAEVKKPGASVKVSCKASGYTFTDYCIGWIRQAPGQGLEWMGDICPGDAYTNDNEKFKDRATMTADTSTSTAYMELSSLRSEDTAVYYCARGEEQLGLRNAMDYWGQGTSVTVSS
VL: DIVMTQSPDSLAVSLGERATINCQSQSVSTSTYNYMHWYQQKPGQPPKLLIKYASNLESGVPDRFSGSGSGTDFTLTISSLQAEDVATYYCQHSWEIPWTFGGGTKLEIK
Kd: 1200 pM

Now those with a lower Kd, led by results:

Kd: < 1 pM
B3: AB13-112 (IgG4 kappa) (antibody, V domains shown)
VH: B2 VH with S54K, T56R, N59K, S63K, V106I, S109A
VL: B1 VL with Y36F, R42K, A50V, S53N, Q55E, H70D

Kd: 2 pM
B4: AB13-288 (IgG1m(zf) kappa) (antibody, V domains shown)
VH: B2 VH with S54K, T56R, N59K, S63K, V106I, S109A
VL: B1 VL with Y36F, R42K, A50V, S53N, Q55E, H70D

Kd: 28 pM
B5: AB13-288 (IgG4-2 kappa) (antibody, V domains shown)
VH: B2 VH with S54K, T56R, N59K, S63K, V106I, S109A
VL: B1 VL with Y36F, R42K, A50V, S53N, Q55E, H70D

Kd: < 1 pM
B6: AB13-112 (IgG1m(za) kappa) (antibody, V domains shown)
VH: B2 VH with S54K, T56R, N59K, S63K, V106I, S109A
VL: B1 VL with Y36F, R42K, A50V, S53N, Q55E, H70D

Kd: 56 pM
B8: KL31-532 (antibody, V domains shown)
VH: B7 VH with A56T, S117L
VL: B7 VL with Q92G, W95Y, L107V

Reference: patent US20180282402A1
